The target of assay [1] is T1, recombinant human ALK2 extracellular domain (Creative Biomart catalog number ACVR1-01H) (human, UniProt Q04771 21-123).
T1 construct: also called ALK2 ECD; ACVR1 ECD
T1 sequence: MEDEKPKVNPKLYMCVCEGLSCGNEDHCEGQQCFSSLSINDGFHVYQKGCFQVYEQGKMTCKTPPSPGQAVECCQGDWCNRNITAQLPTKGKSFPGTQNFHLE
The experiment in a line: SPR (Biacore), antibody captured, ALK2 ECD as analyte. (Surface plasmon resonance follows binding to a sensor surface in real time, without labels.)

The target of assay [2] is T1, recombinant human ALK2 extracellular …. The experiment in a line: SPR (Biacore), JAB0481 captured at low density on anti-mouse IgG chip, ALK2 ECD as analyte, 1:1 Langmuir fit. Here is the method: (§1) Anti-mouse IgG was immobilized on carboxymethylated dextran BiaCore sensor chips (CMS, GE Biosciences) using a Mouse Antibody Capture Kit (GE Lifesciences product number BR100838). Two sensors were prepared; one for a “low” density of JAB0481 captured on the sensor and one with a “high” density of JAB0481 captured on the sensor. JAB0481 was diluted to 0.05 mg/ml in HEPES EDTA surfactant buffer (HBS-EP), pH 7.4 and injected onto the mouse antibody capture sensors. The volume of JAB0481 solution injected for the “low” density condition was […], and the volume that was used for the “high” density condition was 30 μL.
(§2) The ALK2 ECD was diluted in HBS-EP buffer and injected over the JAB0481 captured sensors at concentrations ranging from 2000 nM to 250 nM followed by a 300 second association period. This was followed by the injection of HBS-EP buffer and a 500 second dissociation period. Relative response deflection was plotted against time and the data were fitted to curves according to the Langmuir 1:1 binding kinetic model.
(§3) The sensorgrams for the binding of the ALK2 ECD to JAB0481 at low surface density is provided in FIG. 9, while the sensorgrams for the binding of the ALK2 ECD to JAB0481 at high surface density is provided in FIG. 10. Table 2 provides the association and dissociation rates, the dissociation constant, and Chi squared values calculated from the Biacore binding data.

Assay [3] concerns the target T2, ALK1-Fc (R&D Systems catalog number 370-AL-100) (human, UniProt P37023 22-118).
T2 construct: extracellular domain; Bought; also called recombinant ALK1-Fc; paralog ALK1; not shown: Fc part (loaded on anti-human Fc tips)
The experiment in a line: bio-layer interferometry (Octet): ALK1-Fc captured on anti-human Fc tips, antibody in solution at 10 ug/mL. The method, then: ALK2-Fc (R&D Systems), ALK2-Fc (Sino Biological catalog number 10227-H03H), and ALK1-Fc (R&D Systems catalog number 370-AL-100) were diluted to 10 μg/mL in 1× kinetics buffer (ForteBio) and loaded onto anti-human Fc tips (ForteBio). After baseline equilibration in kinetics buffer (ForteBio), the sensors were applied to solutions of antibodies JAB0399, JAB0481, and BB5.1 (isotype control mAb) diluted to 10 μg/ml in kinetics buffer. The sensors were then applied to antibody-free kinetics buffer to measure antibody dissociation.
In general terms: BLI is a label-free optical method that tracks binding on a fibre tip over time.

For assay [4], the target named is T3, mouse ALK2 expressed on the cell surface of wild-type C2C12 mouse myoblast cells (mouse, UniProt P37172 21-509).
T3 construct: Endogenous ALK2 of C2C12 cells (ATCC CRL-1772); also called murine ALK2; ALK2 on C2C12 cells
T3 sequence: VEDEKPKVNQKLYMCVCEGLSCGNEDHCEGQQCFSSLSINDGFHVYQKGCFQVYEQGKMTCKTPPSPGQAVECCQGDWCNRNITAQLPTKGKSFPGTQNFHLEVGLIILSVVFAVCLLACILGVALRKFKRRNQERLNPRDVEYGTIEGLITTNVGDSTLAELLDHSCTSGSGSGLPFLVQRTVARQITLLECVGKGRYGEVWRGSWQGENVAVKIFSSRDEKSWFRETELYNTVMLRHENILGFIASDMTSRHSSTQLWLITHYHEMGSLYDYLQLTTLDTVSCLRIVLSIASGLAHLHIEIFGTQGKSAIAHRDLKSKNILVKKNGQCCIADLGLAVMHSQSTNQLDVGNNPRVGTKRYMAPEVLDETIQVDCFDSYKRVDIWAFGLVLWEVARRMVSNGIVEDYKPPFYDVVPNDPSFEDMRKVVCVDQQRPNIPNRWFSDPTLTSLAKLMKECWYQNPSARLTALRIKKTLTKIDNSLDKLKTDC
The experiment in a line: flow cytometry on wild-type C2C12 cells, antibody 2.45 to 5,000 ng/mL and 0 ng/mL, detected with AF488 donkey anti-mouse IgG. The method, then: Anti-ALK2 antibodies were evaluated for binding to ALK2 expressed on the cell surface of mouse myoblast cells (C2C12; ATCC CRL-1772) by flow cytometry. The expression of ALK2 in wild-type C2C12 cells was confirmed by RT-qPCR and by observing the binding of commercially available polyclonal anti-ALK2 antibodies to the cells by flow cytometry (data not shown). […] Loss of ALK2 expression was verified by flow cytometry and genomic sequencing (data not shown).
Wild-type and ALK2 knock-out C2C12 cells were detached from culture flasks using AssayComplete™ Cell Detachment Reagent (DiscoverX) which was used to maintain intact cell membrane morphology. Cells were washed twice with PBS and then re-suspended in PBS. […] Cells were washed once in FACS buffer (5% bovine serum albumin, […] in PBS) re-suspended in blocking buffer (6% BSA in PBS) and incubated on wet ice for 15 minutes. The binding of the anti-ALK2 antibodies to cells was detected with a 1:100 dilution of Alexa Fluor488-conjugated donkey anti-mouse IgG (ThermoFisher catalog number A21202). Cells were then washed twice in FACS buffer, re-suspended in FACS buffer and the binding of anti-ALK2 antibodies determined by flow cytometry using a DxP6 flow cytometer (Cytek).
(A flow cytometer gives signals particle by particle.)

The target in assay [5] is T1, recombinant human ALK2 extracellular …. The experiment in a line: SPR (Biacore), JAB0481 captured at high density on anti-mouse IgG chip, ALK2 ECD as analyte, 1:1 Langmuir fit. Here is the method:
as §1, §2, §3

Assay [6] deals with T3, mouse ALK2 expressed on the cell …. The experiment in a line: cell-based or functional assay.

Numbering of substitutions follows the chain as printed.

T2 sequence (P37023 22-118): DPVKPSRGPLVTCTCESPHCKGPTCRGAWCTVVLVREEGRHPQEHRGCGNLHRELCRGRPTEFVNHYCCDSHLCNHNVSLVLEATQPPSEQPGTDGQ

B1: JAB0481 (antibody, mouse IgG1, kappa)
heavy: EVQLQQSGAELVRPGASVRLSCTASGFNIKDSLMHWVKQRPEQGLEWIGWIDPEDGETKYAPNFQDKATITAVTSSNTAYLQLSSLTSEDSAIYYCARYTSDYYTMDYWGQGTSVTVSSAKTTPPSVYPLAPGSAAQTNSMVTLGCLVKGYFPEPVTVTWNSGSLSSGVHTFPAVLQSDLYTLSSSVTVPSSTWPSQTVTCNVAHPASSTKVDKKIVPRDCGCKPCICTVPEVSSVFIFPPKPKDVLTITLTPKVTCVVVDISKDDPEVQFSWFVDDVEVHTAQTKPREEQINSTFRSVSELPIMHQDWLNGKEFKCRVNSAAFPAPIEKTISKTKGRPKAPQVYTIPPPKEQMAKDKVSLTCMITNFFPEDITVEWQWNGQPAENYKNTQPIMDTDGSYFVYSKLNVQKSNWEAGNTFTCSVLHEGLHNHHTEKSLSHSPGK
light: DIQMTQSPASQSASLGESVTFTCLASQTIGTWLAWYQQKPGKSPQLLIYAATSLADGVPSRFSGSGSGTKFSFKISSLQAEDFASYYCQQLYSTPWTFGGGTKLEIKRADAAPTVSIFPPSSEQLTSGGASVVCFLNNFYPKDINVKWKIDGSERQNGVLNSWTDQDSKDSTYSMSSTLTLTKDEYERHNSYTCEATHKTSTSPIVKSFNRNEC
notes: Murine IgG1/kappa; also called antibody JAB0481; parent mAb JAB0481
For the molecule B1, the Kd came to 132 nM in assay [1], 155 nM in assay [2] and 72.7 nM in assay [5]. The figures for the koff in assay [1], in assay [2] and in assay [5] were 0.00516 s⁻¹, 0.00833 s⁻¹ and 0.00467 s⁻¹, respectively. Besides, the kon in assay [1] is 39100 M⁻¹ s⁻¹; in assay [2] it was 53600 M⁻¹ s⁻¹; in assay [5], 64200 M⁻¹ s⁻¹. For the same molecule, the binding result is “no binding (tested: 10 ug/mL)” in assay [3] and “binds” in assay [4].

B2: JAB0399 (antibody, mouse IgG1, kappa)
heavy: B1 heavy with S134F
light: B1 light
notes: Murine IgG1/kappa mAb from phage library; also called antibody JAB0399; mAb JAB0399
For B2, the binding result in assay [3] is reported as “no binding (tested: 10 ug/mL)”.

B3: JAB0505 (antibody, mouse IgG1, kappa, V domains shown)
VH: EVQLQQSGAELVRPGASVRLSCTASGFNIKDSLMHWVKQRPEQGLEWIGWIDPEDGETRYAPNFQDKATITAVTSSNTAYLQLSSLTSEDSAIYYCARYTSRYYTMEYWGQGTSVTVSS
VL: DIQMTQSPASQSASLGESVTFTCLASQTIGTWLAWYQQKPGKSPQLLIYAATSLADGVPSRFSGSGSGTKFSFKISSLQAEDFASYYCQQLYWTPWTFGGGTKLEIKR
notes: also called antibody JAB0505
In the case of B3, in assay [1], the Kd stood at 20.8 nM, the koff turned out to be 0.000839 s⁻¹ and the kon was found to be 40300 M⁻¹ s⁻¹. Also, in assay [6], the “IC50, BRE-luciferase reporter assay in C2C12 cells stimulated with BMP9” value was 0.139 nM.

B4: JAB0501 (antibody, mouse IgG1, kappa, V domains shown)
VH: B3 VH with R59K, D66S, R102P, E107D
VL: B3 VL with L91V, W93S
In the case of B4, in assay [1], the Kd is 24.5 nM, the koff came to 0.000929 s⁻¹ and the kon was found to be 37900 M⁻¹ s⁻¹. The “IC50, BRE-luciferase reporter assay in C2C12 cells stimulated with BMP9” value in assay [6] is 0.204 nM.

As a reminder, the Kd is the constant that tells how readily two partners part at equilibrium. Usually koff stands for the first-order rate constant of dissociation. By kon is commonly meant the rate constant with which the complex forms.
